According to the DeepSol protein solubility set:

assay: soluble on expression in E. coli; label from the status in PepcDB or PDB records

Sequence | soluble on expression in E. coli
MTTPLKKIVIVGGGAGGLEMATQLGHKLGRKKKAKITLVDRNHSHLWKPLLHEVATGSLDEGVDALSYLAHARNHGFQFQLGSVIDIDREAKTITIAELRDEKGELLVPERKIAYDTLVMALGSTSNDFNTPGVKENCIFLDNPHQARRFHQEMLNLFLKYSANLGANGKVNIAIVGGGATGVELSAELHNAIKQLHSYGYKGLTNEALNVTLVEAGERILPALPPRISAAAHNELTKLGVRVLTQTMVTSADEGGLHTKDGEYIEADLMVWAAGIKAPDFLKDIGGLETNRINQLVVEPTLQTTRDPDIYAIGDCASCPRPEGGFVPPRAQAAHQMATCAMNNILAQMNGKPLKNYQYKDHGSLVSLSNFSTVGSLMGNLTRGSMMIEGRIARFVYISLYRMHQIALHGYFKTGLMMLVGSINRVIRPRLKLH | not soluble
FDKTVLQIFANYCVAAAESMAHTLMRTAHSAFVKETEDFSCTIMTPRGQTFASPKTLGATWYPGLDFSGAIDMIDGYEPGDICMTNDAYSGYVATHTPDIMMWKPVYYQGEMVCFVGGHIHNTDMGGAVPASLSRTLTEVHQEGIRFPPTKIVRRGVLNEELMRLMELNVRSPDQNRGDLQAQTAMLMTGERRIVEIIERFGLQAFKEGMAAMLDYSEQQARAIVRAMPDGEYFFAEYANEDSLNGKPLRVAITLRIRGDELEFDFTGSDPQLTSSLNMPTGGKERHVLALVGLNYVLYSLNPEILLNAGMLRVARCILPEGSVVNPLAPAAVGMRSLTCKVVQYATMGVFSQVVPDRLPASPAGGMSIVNVKTTDRDGKTIIAAIEPVGGGAGGDPYSDGADASGAIVAFLRNTPVEINETEVPIRITRYGMVPDSGGPGRYRGGLGTCMEFQVYTPNSAVTARNRDRSRFASWGVLGGKAGTVSRFLRNPGTAHEEDLGVHDFIHCQPGDVIRLEGCGGGGYGSPWERDPARVLHDVRCGYV | not soluble
MALSDVKVRSAKPEAKAYKLTDGEGMVLLVHPNGSKYWRLRYRFGGKEKMLALGKYPEVSLADARARRDEARKLLANGVDPSENKKAVKVEQEQEAITFEVVARDWHASNQKWSASHSARVLKSLEDNLFTAIGKRNIAELKTRDLLVPIKAVESSGRLEVAARLQQRTTAIMRFAVQSGLIDYNPAQEIAGAVATAKRQHRAALELNRIPELLHRIDHYSGRPLTRLAVELTLLVFIRSSELRFARWSEIDFETAMWTIPGEREQLEGVKHSQRGSKMRTPHLVPLSRQALSILEKIKSMSGNRELIFVGDHDPRKPMSENTVNKALRVMGYDTKVEVCGHGFRTMACSSLIESGLWSRDAVERQMSHQERSSVRAAYIHKAEHLGERRLMFEVVNKNWPPS | not soluble
MEYCRLDGDTGRLRTEIKHPRLLLFNPGHEMVPEIIGKKPYVPPPVVRSMMRDLGLLPAWLTKSEQDFVFCPEKTLPIPDTHPLKPEARLLQIPDTALPLNDYTLDMWGQSPVWLAALQHRFLWLSTVSAPYYPHELYERSHRCEAARCLEAIGHSEMAAHWFTSINDFLKERYHCFPPDSALLAKLPSSSSGRGLIWLSSSPTDDEIDLLTKALRRAGSFSVEPVLDVRQDWAAEFYSNGKGELYFVGWSRFDTNRWGAYLGNRLATQTDLVAELTQTVGAQAHEEAIASVKDYLRER | not soluble
MSLRDTQTQLRNEMIYSVFVRNYSEAGNFAGVTADLQRIKDLGTDILWLLPINPIGEVNRKGTLGSPYAIKDYRGINPEYGTLADFKALTDRAHELGMKVMLDIVYNHTSPDSVLATEHPEWFYHDADGQLTNKVGDWSDVKDLDYGHHELWQYQIDTLLYWSQFVDGYRCDVAPLVPLDFWLEARKQVNAKYPETLWLAESAGSGFIEELRSQGYTGLSDSELYQAFDMTYDYDVFGDFKDYWQGRSTVERYVDLLQRQDATFPGNYVKMRFLENHDNARMMSLMHSKAEAVNNLTWIFMQRGIPLIYNGQEFLAEHQPSLFDRDTMVADRHGDVTPLIQKLVTIKQLPLLRAADYQLAVVEEGIVKITYRAAGEALTAWIPLKGQVTAVATKLAAGSYQNLLTDGPTEVVDGKLTVDGQPVLIKYVTNTAVTKVADQSNEGHHHHHH | soluble
MSLKKYLGIIVDAVSRRQFKGEITVENGKILRVEEKEHDHERYILPGLVDAHVHIESSMTVPSVFARMAVAKGTVAVVSDPHEIANVMGEEGIDFMLGDSKRSPLKVFFGVPSCVPATPFESAGSVLDAEAVDRLLAREDLYYLSEMMNFPGVVLGFPDVMAKLESAKKCGKVIDGHAPGLRGADLETYIGVGISTDHESFTYEEAVEKIKLGMKILIREGSSARNFETLYSLIDEYPEAVMLCTDDSHPDTLIYEGHIDKLIRRGQEKGLDIFNLIRAAVINPVEHYGLNVGLLREGDPADFITVDDLKSFNVLSTFIDGECVYENGEGHHHHHH | soluble
MTITPPTPNGDLHIGHIAGPFLAADVFTRVQRQRGHDCVLVSYSDDYQSYMLRKGLEQGVDPVVLAHRNSDRIEASLAAINIKPDNWMRPHNNPWFAEAVGEVFTALRDAGAIEFRDSSEPYCPDCAVWGYEAFARGQCNYCGAESDASQCENCAQAPDAELMSGLHCKLCQQPSQWKTAHRAFLKLADFKPQLGNRLLGQAWRKPLDSWLRDTLEHLHDWGVTRPGDGGLDLQADGACRVHTWFMGLAGYMAAFREYADSIGRPELFGQYWQSGQGTLVHFLGFDCVFSHAIVYPAQLSVLQGIKVRQRFVPNQFLKLDGLNLSTSRNHAIWVGDLARQACADSARLYLASIAPEDSEGDFRMTHFFEWREELFNGF | not soluble
VHVEDALTYLDQVKIRFGSDPATYNGFLEIMKEFKSQSIDTPGVIRRVSQLFHEHPDLIVGFNAFLP | soluble
ETQQRCVTATDYDTFVSERFGSIIQAVQTFTDSTKPGYAFIAAKPKSGLYLTTVQREDIKNYLKDYNLAPITPSIISPNYLFIKTNLKVTYALNKLQESEQWLEGQIIDKIDRYYTEDVEIFNSSFAKSKMLTYVDDADHSVIGSSATIQMVREVQNFYKTPEAGIKYNNQIKDRSMESNTFSFNSGRKVVNPDTGLEEDVLYDVRIVSTDRDSKGIGKVIIGPFASGDVTENENIQPYTGNDFNKLANSDGRDKYYVIGEINYPADVIYWNIAKINLTSEKFEVQTIELYSDPTDDVIFTRDGSLIVFENDLRPQYLTIDLEPISQLEHHHHHH | soluble
MEHVAFGSEDIENTLAKMDDGQLDGLAFGAIQLDGDGNILQYNAAEGDITSRDPKQVIGKNFFKDVAPCTDSPEFYGKFKEGVASGNLNTMFEYTFDYQMTPTKVKVHMKKALSGDSYWVFVKRV | soluble
SRWQRDLTDSTVLRNMGVALGHTLLAYDSCLKGLGKLQADPARLSEDLQNAWEVLAEPIQTVMRRYGVANPYEQLKALTRGKTGIDRTTLQQFIEQLDIPAAERDRLLQLTPWGYI | not soluble
GGSGPLKPEEHEDILNKLLDPELAQSERTEALQQLRVNYGSFVSEYNDLEEKVAHAKEENLNMHQMLDQTLLELNNM | soluble
MIIRIVQNIQRINKEGNAPLYISFYLGKEKVVIPCKLSVPTTKFDSKTGMLRGTNKEAKDINLIIERLKAKVNDILVKHRLKNLTLNKEAFMREYNNPSDFKSFHDFVASYMKTYSRRLEIGTFRHHKSCMRKFKEYCEGLQFHELTEDFLRDYLIYMKKTLCNADSTAQRNLSTIKIYVSAAIKKGYMENDPFKDFGVKRIKSNIDYLTEEELIKFISLYYDRRLPERLERTLGFFLFMCFTSLHISDARHVCLEQINNGILTYYRIKNRNCKPEAIKIPLSIPAFKIIEELQGKRKEGH | not soluble
MATLKDIAIEAGVSLATVSRVLNDDPTLNVKEETKHRILEIAEKLEYKTSSARKLQTGAVNQHHILAIYSYQQELEINDPYYLAIRHGIETQCEKLGIELTNCYEHSGLPDIKNVTGILIVGKPTPALRAAASALTDNICFIDFHEPGSGYDAVDIDLARISKEIIDFYINQGVNRIGFIGGEDEPGKADIREVAFAEYGRLKQVVREEDIWRGGFSSSSGYELAKQMLAREDYPKALFVASDSIAIGVLRAIHERGLNIPQDISLISVNDIPTARFTFPPLSTVRIHSEMMGSQGVNLVYEKARDGRALPLLVFVPSKLKLRGTTR | soluble
MGSDKIHHHHHHMDRIIEKLDHGWWVVSHEQKLWLPKGELPYGEAANFDLVGQRALQIGEWQGEPVWLVQQQRRHDMGSVRQVIDLDVGLFQLAGRGVQLAEFYRSHKYCGYCGHEMYPSKTEWAMLCSHCRERYYPQIAPCIIVAIRRDDSILLAQHTRHRNGVHTVLAGFVEVGETLEQAVAREVMEESGIKVKNLRYVTSQPWPFPQSLMTAFMAEYDSGDIVIDPKELLEANWYRYDDLPLLPPPGTVARRLIEDTVAMCRAEYE | soluble
